From US20240317847A1 (Bayer, published 2024)
Where a chain is given by its changes, count along the chain named. Where “and” joins values, the source holds several entries; their conditions need not be identical. Equal values may be shown once.

T1: murine IL-11 (mouse, UniProt P47873 22-199)
T1 sequence: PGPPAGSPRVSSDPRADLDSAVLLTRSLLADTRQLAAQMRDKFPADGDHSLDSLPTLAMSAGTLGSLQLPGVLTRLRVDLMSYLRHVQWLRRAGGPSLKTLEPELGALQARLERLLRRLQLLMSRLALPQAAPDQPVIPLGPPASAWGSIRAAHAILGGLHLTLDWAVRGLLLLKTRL

T2: human IL-11 (human, UniProt P20809 22-199)
T2 sequence: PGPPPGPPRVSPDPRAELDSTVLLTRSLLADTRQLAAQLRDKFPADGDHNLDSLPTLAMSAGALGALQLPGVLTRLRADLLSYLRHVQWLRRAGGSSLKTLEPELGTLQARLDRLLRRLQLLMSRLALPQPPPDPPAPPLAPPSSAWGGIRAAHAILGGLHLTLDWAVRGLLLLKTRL

T3: human IL-11 (human, UniProt P20809 22-199)
T3 sequence: T2 sequence

T4: murine IL-11 (mouse, UniProt P47873 22-199)
T4 sequence: T1 sequence

B1: TPP-31295 (antibody, IgG4, V domains shown)
VH: EVQLLESGGGLVQPGGSLRLSCAASGFTFSHYDMNWLRQAPGKGLEWVGVISYDGSNKYYADFVKGRFTISRDNSKNTLYLQMNSLRAEDTAVYYCARTPGSHFDYWGQGTLVTVSS
VL: QSVLTQPPSASGTPGQRVTISCSGSSSNIGNNAVNWYQQLPGTAPKLLIYYDDLLPSGVPDRFSGSKSGTSASLAISGLRSEDEADYYCSAWDDSLNGVVFGGGTKLTVL
B2: TPP-18087 (antibody, mouse IgG1, V domains shown)
VH: B1 VH with Y59F
VL: QSVLTQPPSASGTPGQRVTISCSGSSSNIGNNAVNWYQQLPGTAPKLLIYYDDLLPSGVPDRFSGSKSGTSASLAISGLRSEDEADYYCSAWDDSLNGVVFGGGTKLTVLG
B3: TPP-31297 (antibody, IgG4, V domains shown)
VH: B1 VH with Y59F
VL: B1 VL with N97Q
B4: TPP-31298 (antibody, IgG4, V domains shown)
VH: B1 VH with Y59F
VL: B1 VL with N97S
B5: TPP-31299 (antibody, IgG4, V domains shown)
VH: B1 VH with Y59F
VL: B1 VL with G98A
B6: TPP-31300 (antibody, IgG4, V domains shown)
VH: B1 VH with D54E, Y59F
VL: B1 VL
B7: TPP-31301 (antibody, IgG4, V domains shown)
VH: B1 VH with D54E, Y59F
VL: B1 VL with N97Q
B8: TPP-31302 (antibody, IgG4, V domains shown)
VH: B1 VH with D54E, Y59F
VL: B1 VL with N97S
B9: TPP-31303 (antibody, IgG4, V domains shown)
VH: B1 VH with D54E, Y59F
VL: B1 VL with G98A
B10: TPP-31304 (antibody, IgG4, V domains shown)
VH: B1 VH with G55A, Y59F
VL: B1 VL
B11: TPP-31305 (antibody, IgG4, V domains shown)
VH: B1 VH with G55A, Y59F
VL: B1 VL with N97Q
B12: TPP-31306 (antibody, IgG4, V domains shown)
VH: B1 VH with G55A, Y59F
VL: B1 VL with N97S
B13: TPP-31307 (antibody, IgG4, V domains shown)
VH: B1 VH with G55A, Y59F
VL: B1 VL with G98A
B14: TPP-31308 (antibody, IgG4, V domains shown)
VH: B1 VH with G55S, Y59F
VL: B1 VL
B15: TPP-31309 (antibody, IgG4, V domains shown)
VH: B1 VH with G55S, Y59F
VL: B1 VL with N97Q
B16: TPP-31310 (antibody, IgG4, V domains shown)
VH: B1 VH with G55S, Y59F
VL: B1 VL with N97S
B17: TPP-31311 (antibody, IgG4, V domains shown)
VH: B1 VH with G55S, Y59F
VL: B1 VL with G98A
B18: TPP-26290 (antibody, V domains shown)
VH: EVQLLESGGGLVQPGGSLRLSCAASGFTFSSYGMHWVRQAPGKGLEWVSVISYDGSYKYYADSVKGRFTISRDNSKNTLYLQMNSLRAEDTAVYYCAAGVPDYWGQGTLVTVSS
VL: QSVLTQPPSASGTPGQRVTISCTGSSSNIGAGMDVHWYQQLPGTAPKLLIYSNNERPSGVPDRFSGSKSGTSASLAISGLRSEDEADYYCAAWDDSLNGPVFGGGTKLTVL
B19: TPP-26301 (antibody, V domains shown)
VH: B18 VH
VL: B18 VL with G32D, M33Y
B20: TPP-26312 (antibody, V domains shown)
VH: B18 VH
VL: B18 VL with M33L
B21: TPP-31279 (antibody, IgG4, V domains shown)
VH: B1 VH with Y59F
VL: B1 VL with N35Y
B22: TPP-31280 (antibody, IgG4, V domains shown)
VH: B1 VH with Y59F
VL: B1 VL with Y51R
B23: TPP-31281 (antibody, IgG4, V domains shown)
VH: B1 VH with Y59F
VL: B1 VL with D52N
B24: TPP-31282 (antibody, IgG4, V domains shown)
VH: B1 VH with Y59F
VL: B1 VL with D53N
B25: TPP-31283 (antibody, IgG4, V domains shown)
VH: B1 VH with Y59F
VL: B1 VL with L54Q
B26: TPP-31290 (antibody, IgG4, V domains shown)
VH: B1 VH with H31S, Y59F
VL: B1 VL
B27: TPP-31291 (antibody, IgG4, V domains shown)
VH: B1 VH with D33G, Y59F
VL: B1 VL

What was measured:
Experiment in all cases: cell-based or functional assay
murine IL-11 [1] = target: T1, murine IL-11
human IL-11 [2] = target: T2, human IL-11
human IL-11 [3] = target: T3, human IL-11; remark: listed apart in the source
murine IL-11 [4] = target: T4, murine IL-11; remark: listed apart in the source

| Binder | IC50, RGA 1 (murine IL-11 [1]) | IC50, RGA 2 (murine IL-11 [1]) [nM] | IC50, RGA 1 (human IL-11 [2]) | IC50, RGA 2 (human IL-11 [2]) [nM] | RGA Efficacy (%) (human IL-11 [3]) | RGA IC50 (human IL-11 [3]) [nM] | RGA Efficacy (%) (murine IL-11 [4]) | RGA IC50 (murine IL-11 [4]) [nM] |
| --- | --- | --- | --- | --- | --- | --- | --- | --- |
| B1 | 60 nM | 37 | 364 nM | 92 | – | – | – | – |
| B2 | 204 nM and 231 nM | 21 | 111 nM and 93 nM | 12 | – | – | – | – |
| B3 | 37 nM | 7.93 | 181 nM | 22 | – | – | – | – |
| B4 | 21 nM | 6.22 | 135 nM | 33 | – | – | – | – |
| B5 | 44 nM | 14 | 238 nM | 114 | – | – | – | – |
| B6 | 3.42 nM | 0.81 | 1.09 nM | 4.75 | – | – | – | – |
| B7 | 4.43 nM | 1.77 | 18.9 nM | 9.71 | – | – | – | – |
| B8 | 3.49 nM | 1.17 | 14.5 nM | 7.13 | – | – | – | – |
| B9 | 4.38 nM | 2.49 | 9.08 nM | 11 | – | – | – | – |
| B10 | 42 nM | 21 | 104 nM | 35 | – | – | – | – |
| B11 | 30 nM | 29 | 182 nM | 47 | – | – | – | – |
| B12 | 57 nM | 60 | 126 nM | 23 | – | – | – | – |
| B13 | 45 nM | 37 | > 500 nM | 126 | – | – | – | – |
| B14 | 63 nM | 170 | > 500 nM | > 500 | – | – | – | – |
| B15 | 108 nM | 68 | 261 nM | 122 | – | – | – | – |
| B16 | 144 nM | 75 | > 500 nM | > 500 | – | – | – | – |
| B17 | 76 nM | 127 | > 500 nM | 34 | – | – | – | – |
| B18 | – | – | – | – | 75.9 | 4.7 | 95.1 | 0.97 |
| B19 | – | – | – | – | 76.1 | 2.6 | 91.8 | 1.5 |
| B20 | – | – | – | – | 68.6 | 3.8 | 87.3 | 1.2 |
| B21 | 196 nM | > 500 | > 500 nM | > 500 | – | – | – | – |
| B22 | > 500 nM | – | > 500 nM | – | – | – | – | – |
| B23 | > 500 nM | – | > 500 nM | – | – | – | – | – |
| B24 | 70 nM | 28 | 345 nM | 287 | – | – | – | – |
| B25 | 247 nM | 118 | > 500 nM | 200 | – | – | – | – |
| B26 | > 500 nM | – | > 500 nM | – | – | – | – | – |
| B27 | > 500 nM | – | > 500 nM | – | – | – | – | – |
